Measured values taken from the nanobody polyreactivity screen of Harvey et al. (2022).

Experiment: yeast display, Sf9 membrane polyspecificity reagent, FACS + sequencing; frameworks hold sequencing errors
Summary of the method: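 Galactose induction of a Saccharomyces cerevisiae BJ5465 synthetic nanobody display library ran 36–48 hours. The cells were then stained for 1 hour at 4 °C with 10% biotinylated, detergent-solubilized Sf9 membrane reagent, pulled down on streptavidin microbeads and FACS-sorted into low and high (top ~1%) gates on expression and reagent-binding fluorescence. Labels for polyreactivity follow the gate of origin.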

Sequence	polyreactivity (PSR sort gate)
QVQLVESGGGLVQAGGSLRLSCAASGRIFYSYTMGWYRQAPGKERELVAGINRSVGSTYYADSVKGRFTISRDNAKNTVYLQMNSLKPEDTAVYYCAAGSRRRSYYTFSSVHGHYYWGQVTQVTVSS	high polyreactivity
QVQLVESGGGLVQAGGSLRLSCAASGRIFYTNAMGWYRQAPGKERELVATISSSGGRTYLRNSVKGRFTLSRDNAKNTVYLQMNSLKPEDTAVDYCAAGWSYPVRNIYYYWGQGTQVTVSS	high polyreactivity
QVQLVESGGGLVQAGGSLRLSCAASGRIFYTNTMGWYRQAPGKERELVAAIRSGTRTYYADSVKGRFTISRDNAKNTVYLQMNSLKPEDTAVYYCAAYYSYYGGDYWGQGTQVTVSS	low polyreactivity
QVQLVESGGGLVQAGGSLRLSCAASGRIFYVNVMGWYRQAPGKERELVAAIYWSDGSTYYADSVKGRFTISRDNAKNTVYLQMNSLKPEDTAVYYCNRRGPYGYKAWAIGTIGDLDYWGQGTQVTVSS	low polyreactivity
QVQLVESGGGLVQAGGSLRLSCAASGRIFYVYAMGGYRQAPGKERELVAGITSGGSTTYADSVKGRFTISRDNAKNTVYLQMNSLKPEDTAVYYCAALQRQSYWTYGYWGHGTQVTVSS	high polyreactivity
QVQLVESGGGLVQAGGSLRLSCAASGRIFYWNAMGCYRQAPGKERELVADISTGGSTYYADSVKGRFTISRDNAKNTVYLQMNRLKPEDTAVYYCAVVYVSLWPSATDWSGFGYWGQGTQVTVSS	low polyreactivity
QVQLVESGGGLVQAGGSLRLSCAASGRIFYWNTMGWYRQAPGKEREFVAAITYGGGRTYYADSVKGRFTISRDNAKNTVYLQMNSLKPEDTAVYYCARRIPTLYLDYDYCGQGTQVTVSS	high polyreactivity
QVQLVESGGGLVQAGGSLRLSCAASGRIFYWYAMAWYRQAPGKERELVAAITSGGSTYYADSVKGRFTISRDNAKNTVYLQMNSLKPEDTAVYYCAADLYYWGDYDYWGQGTQVTVSS	low polyreactivity
QVQLVESGGGLVQAGGSLRLSCAASGRIFYWYAMGWYRQAPGKERELVAAISSTGRTKYADSVKGRFTISRDNAKNTVDLQMNSLKPEDTAVYYCAKRRAAVNGRSDYYYWGQGTQVTVSS	high polyreactivity
QVQLVESGGGLVQAGGSLRLSCAASGRIFYYAMGWYRQAPGKERELVAVITYSGGNTYYADSVKGRFTISRDNAKNTVYLQMNSLKPEDTAVYYCAKAVSTKISRYYHYYKHYDYWGQGTQVTVSS	low polyreactivity
QVQLVESGGGLVQAGGSLRLSCAASGRIFYYNAIGWYRQAPGKERELVATITRAGGTYYADSVKGRFTISRDNAKNTVYLQMNSLKPEDTAVYYCAKRHPIVDDYKGDYWGQGTQVTVSS	low polyreactivity
QVQLVESGGGLVQAGGSLRLSCAASGRIFYYNAMGWYRQAPGKERELVAAINIGGGTKYADSVKGRFTISRDNAKNTVYLQMNSLKPEDTAVYYCAAGIKRYLSYYTRYGYWGQGTQVTVSS	high polyreactivity
QVQLVESGGGLVQAGGSLRLSCAASGRIFYYNAMGWYRQAPGKERELVAAISWDGGSTYYADSVKGRFTISRDNAKNTVYLQMNSLKAEDTAVYYCAVDLYGTWYPTWFNYWGQGTQVTVSS	low polyreactivity
QVQLVESGGGLVQAGGSLRLSCAASGRIFYYNAMGWYRQAPGKERELVAAISYRGASTYYADSVKGRFTISRDNAKNTVYLQMNSLKPEDTAVYYCAAVTISKGFYPYDYWGQGTQVTVSS	high polyreactivity
QVQLVESGGGLVQAGGSLRLSCAASGRIFYYNAMGWYRQAPGKERELVATITGSGGSTYYADSVKGRFTISRDNAKNTVYLQMNSLKPEDTAVYYCNATRWYYDFYKLDYWGQGTQVTVSS	low polyreactivity
QVQLVESGGGLVQAGGSLRLSCAASGRIFYYNDLGWYRQAPGKERELVAAISGSGGSTYYADSVKGRFTISRDNAKNTVYLQMNSLKPEDTAVYYCSYYYWGQGTQVTVSS	low polyreactivity
QVQLVESGGGLVQAGGSLRLSCAASGRIFYYNGMGWYRQAPGKERELVASIPRTSGRTFYADSVKGRFTISRDKAKNTVYLQMNSLKPEDTAVYYCAAVGSRYVLGEYGYWGQGTQVTVSS	high polyreactivity
QVQLVESGGGLVQAGGSLRLSCAASGRIFYYNTMGWYRQAPGKEREFVAAITGSGGITYYADSVKGRFTISRDNAKNTVYLQMNSLKPEDTAVYYCAARTRYSIYRYYYWGQGTQVTVSS	high polyreactivity
QVQLVESGGGLVQAGGSLRLSCAASGRIFYYNTMGWYRQAPGKERELVAAITTNGGSTYYADSVKGRFTISRDNAKNTVYLQMNSLKPEDTAVYYCNRDRYPYYYAYNYWGQGTQVTVSS	low polyreactivity
QVQLVESGGGLVQAGGSLRLSCAASGRIFYYYAMGLYRQAPGKERELVAAISGSGGTTYNADSVKGRITISRDHAKNTVYLQMNSLKPEDTAVYYCAEVQYRYAREYYYWGQCTQVTVSS	high polyreactivity
QVQLVESGGGLVQAGGSLRLSCAASGRIFYYYAMGWYRQAPGKEREFVADISARGGSTYYADSVKGRFTISRDTAKNTVYLQMNSLKPEDTAVYYCAATTGLYTRYGYWGQGTQVTVSS	high polyreactivity
QVQLVESGGGLVQAGGSLRLSCAASGRIFYYYAMGWYRQAPGKEREIVAAISASGGSTYADSVKGRFTISRDNAKNTVYLQMNSLKPEDTAVYYCATVYYYTYAWLDLYGGYTFEYWGQGTQVTVSS	low polyreactivity

Sequence	polyreactivity (PSR sort gate)
QVQLVESGGGLVQAGGSLRLSCAASGRIFYYYAMGWYRQAPGKERELVAAITWSGGSTYYADSVKGRFTISRDNAKNTVYLQMNSLKPEDTAVYYCAAEWAYWDEWSGDYYLLGYWGQGTQVTVSS	high polyreactivity
QVQLVESGGGLVQAGGSLRLSCAASGRIGRYAMGWYRQAPGKESELVAVITSGDSTYYADSVKGRFTITRDNAKNTVYFQMNSLKPEDTAVYYCAADSYRRWGILFTGNEYDSWGQGTQVTVSS	low polyreactivity
QVQLVESGGGLVQAGGSLRLSCAASGRIGYNAMGWYRQAPGKERELVAAISSRGGSTYYADSVKGRFTISRDNAKNTVYLQMNSLKPEDTAVYYCNADYEARTRLGEYDYWGQGTQVTVSS	high polyreactivity
QVQLVESGGGLVQAGGSLRLSCAASGRIHTYAMGWYRQAPGKERELVAAISFSGGSTYYADSVKGRFTISRDNAKNTVYLQMNSLKPEDTAVYYCAAGGGPNYFVDYGIRYDNWGQGTQVTVSS	low polyreactivity
QVQLVESGGGLVQAGGSLRLSCAASGRIIATNAMGWNRQAPGKERELVATITRSAGRTYYADSVKGRFTISRDNAKNTVYLHMNSLKPEDTAVYYCAASYWYTEPGYREYDYWGQGTQVTVSS	low polyreactivity
QVQLVESGGGLVQAGGSLRLSCAASGRIIGKNAMGWYRQAPGKERELVAAIRYNGGRTYYADSVKGRFTISRDNAKNTVYLQMNSLKPEDTAVYYCATRTYRVDPEFGYWGQGTQVTVSS	high polyreactivity
QVQLVESGGGLVQAGGSLRLSCAASGRIIGNYAMGWYRPAPGKERELVARISQSGGSTYYADSVKGRFTISRDHAKNSLYLQMNSLKPEDTAVYYCAKRGRYRYDRDNRYEYWGQGTQVNVSS	low polyreactivity
QVQLVESGGGLVQAGGSLRLSCAASGRIIGVNAMGWYRQAPGKERELVAAISWSGGSTYYADSVKGRFTISRDNAKNTVYLQMNSLKPEDTAVYYCATTYFYARRPRGDYWGQGTQVTVSS	high polyreactivity
QVQLVESGGGLVQAGGSLRLSCAASGRIIGYNAMGWYRQAPGKERELVASIRYSGGSTYYADSVKGRFTISRDNAKNTVYLQMNSLKPEDTAVYYCATRVTYRRRFDYWGQGTQVTVSS	high polyreactivity
QVQLVESGGGLVQAGGSLRLSCAASGRIIKPYAMGWYRQAPGKERELVAAISQSGGRTYYADSVKGRFTISRDNAKNTVYLQMNSLKPEDTAVYYCATRYVSSFGLHAQVWSYYYWGQGTQVTVSS	high polyreactivity
QVQLVESGGGLVQAGGSLRLSCAASGRIINYNVMGWYRQAPRKEMELVAAITRGGSTYYADSVKVRFTISRDNAKNTVYLQMNILKPEDTEVYYCSADTARRPRSYYYWGQGTQVTVSS	low polyreactivity
QVQLVESGGGLVQAGGSLRLSCAASGRIIPYNTMGWYRQAPGKERELVAAISQSDTGTHYADSVKGRFTISRDNAKNTVYLQMNSLKPEDTAVYYCAVDWGYSDDVPYEYWGQGTQVTVSS	low polyreactivity
QVQLVESGGGLVQAGGSLRLSCAASGRIIRGYVMGWYRQAPRKEREMVAITIGAGRTYYADSVKGRFTISRDNAKNTVYLQMNSLIPEDTAVYYCAADTYSTSGYYYWGQGTQVTVSS	low polyreactivity
QVQLVESGGGLVQAGGSLRLSCAASGRIIRKNTMGWYRQAPGKERELVAAIRWSTTSTYYADSVKGRFTISRDNAKNTVYLQMHSLKPEDTAVYYCAARRRDSYGNIYDYWGQGTQVTVSS	high polyreactivity
QVQLVESGGGLVQAGGSLRLSCAASGRIIRWNAMGWYRQAPGKERELVAAITYSSGSTYYADSVKGRFTISRDNAKNTVYLQLNSLKPEDTAVYYCAAYSYGWDYSYDYWGQGTQVNVSS	low polyreactivity
QVQLVESGGGLVQAGGSLRLSCAASGRIISAYAMGWYRQAPGKERELVAAITGSGGSTYYADTVKGRFTISRDNAKKTVYLQMNSRKPEDTAVYYCAAKIDYPDARYFPYRYYYWGQGTQVTVSS	high polyreactivity
QVQLVESGGGLVQAGGSLRLSCAASGRIISRYAMGWYRQAPGKERELVAAISRRGGSTYYADSVKGRFTISRDNAKKTVYLQMNSLKPEDTAVYYCNADTGNRGYDYWGQGTQVTVSS	high polyreactivity
QVQLVESGGGLVQAGGSLRLSCAASGRIISYYAMRWYRQAPGKERELVAAITSAGGTNYADSVKARFTISRDNAKNTVYLQMNSLKPEDTAVYYCAADLYDWPLAWWEYFYWGQGTQVTVSS	low polyreactivity
QVQLVESGGGLVQAGGSLRLSCAASGRIIVDNAMGWYRQAPGKERELVAAITNGGSTSYADSVKGRFTISRDNAKNTVYLQMNSLKPEDTAVYYCNADEDLRGYDYWGQGTQVTVSS	low polyreactivity
QVQLVESGGGLVQAGGSLRLSCAASGRIIVLYAMGWSRQAPGKERELVASIRSGGSTNYADSVKGRFTISRDNAKNTVYLQMNSLKPEETAVYYCAARPDHKRYDYWGQGTQVTVSS	low polyreactivity
QVQLVESGGGLVQAGGSLRLSCAASGRIIYDKAMGWYRQAPGKERELVAAISRSGRTYYADSVKGRFTISRDNAKNTVYLQMNSLKPEDSAVYYCNARTLTVLEFDYWGQGTQVTVSS	low polyreactivity
